Assay results published in the supplement of paper PMC12042874.
± gives the uncertainty stated by the source.

Experiment: amyloid nucleation score (Sup35N fusion, yeast selection) (log enrichment); library NNK2; higher = more nucleation; inactive = no reads after selection
How it was run: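 Psi-negative yeast expressed Sup35N fused to peptides of 20 random codons. They were induced 24 hours with 100 μM copper sulfate, grown 7 days at 30°C without adenine and uracil, and their plasmid inserts from input and output were Illumina-sequenced. The nucleation score is the DiMSum log enrichment of output over input reads, centred on the mode score of non-aggregating sequences. Sequences with under 100 input reads were excluded.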

Substance	amyloid nucleation score
VRWNIVKSCAVMDSNGIMWV	0.432 ± 0.33
VRYKSYMDVS	0.87 ± 0.48
VSAKVFSGGKESVMMCWPPL	1.58 ± 0.41
VSAWWQDVYSCTHTHAPAAQ	5.46 ± 0.098
VSCAESVGIYINYWFLNCQE	8.702 ± 0.03
VSCCNLVVDLKRTILLFGGR	7.504 ± 0.052
VSCDNASSVLFFVRTTIWCT	0.751 ± 0.74
VSGMPIKMR	0.886 ± 0.34
VSHMNCLDMICHLWISQLVL	1.65 ± 0.098
VSHRIFGGNMWPGKSHECMC	inactive
VSIIRIKYSNQAISVRNSDS	4.155 ± 0.038
VSISKVFAAFVFLEPANTRI	5.36 ± 0.097
VSKNYDHCELRHMECAYWYT	0.211 ± 0.19
VSKPQKRFKDEFYSLLSVKF	-0.55 ± 0.76
VSLHKRPTWLPVCIARYGWS	0.333 ± 0.24
VSNAGSSTKDILGIHRS	-0.06 ± 1.1
VSPNPIWIVEKWPI	-1.63 ± 0.62
VSQFYSMPLTSSYWSLVSSL	0.147 ± 0.65
VSRGNAGWS	3.6 ± 0.075
VSSHNLMPNRNWMFETQLSW	-0.297 ± 1.1
VSSNSVWSIY	-1.01 ± 0.44
VSTLRQGWSILQTPNYVRS	-0.219 ± 0.76
VSVGNPFSVNRQVYCPTTEW	-1.38 ± 0.62

Substance	amyloid nucleation score
VSVVDGSILMNLCLRLVLRR	-0.068 ± 0.79
VTANNFKWVVIWLSWRGYGD	-1.48 ± 1.1
VTDQVVFSEWIAADYMFDKY	0.491 ± 0.52
VTIYGVLSRLNDCFFRGVWD	inactive
VTMIPA	-0.207 ± 0.63
VTMKHVAGSSHDCPYAILTN	0.082 ± 1
VTNCLTIWAFMGSRRCWKAP	3.62 ± 0.11
VTRDFSRGIGDWLICGDILE	-1.81 ± 0.49
VTTNWGSSVRNQAEGYRPSL	-0.067 ± 0.42
VTVSVGSLYTNFATPKDRMV	0.357 ± 0.36
VTVVWESDSFRYVYWLNRLE	0.926 ± 0.48
VVAGEYGWTWFFKESLGLGM	-0.332 ± 0.49
VVDCKGVLLAFSNRIFGWTT	-0.064 ± 0.76
VVDGYYGFWVVSQEDISIYP	-0.094 ± 0.54
VVENRALLYGGFVR	0.135 ± 0.63
VVHDNW	0.29 ± 0.22
VVLQTKHSLAISGQQLIPMA	0.32 ± 0.32
VVNLDSF	-1.95 ± 0.62
VVNLETVCIYRKLSYKFQVR	inactive
VVNRYRNTFFCVYWTSAGVL	6.65 ± 0.073
VVPFIKTRCNPV	-0.829 ± 0.33
VVRPVTLRFCTKGGMYSSVG	0.407 ± 0.32
VVSERRAFVRGVFDWIITLD	-0.02 ± 0.55

Substance	amyloid nucleation score
VVSFNWLEYVSNMSQMNWDG	-0.015 ± 0.63
VVTKQMSRFS	0.701 ± 0.51
VVTRNRISRAGGLRS	0.616 ± 0.39
VVVRGVQAGCGKPPVSRLRI	0.838 ± 0.23
VVYASRLC	0.681 ± 0.35
VVYDHILVAKFRAFVLGPFL	4.07 ± 0.054
VVYTRIEVILSGDLSPREMV	0.763 ± 0.24
VWEIEGEPPWVQSVCSWDPR	3.85 ± 0.057
VWGHWPSRFSQQSRCN	0.185 ± 0.5
VWLCCLCWVQMDLANVNLWL	8.315 ± 0.053
VWLEACGFSRIFSLQFLVSV	-0.476 ± 0.76
VWRNRSGNITSVTFL	5.23 ± 0.069
VWSSLGRECPSSCIVFLSVE	-0.464 ± 0.78
VWVKVLYYSRDICTLWSPGW	-0.059 ± 0.5
VYAIHGTRYCELGAPIDKLY	0.852 ± 0.29
VYAMVGVSLACGCVSWKGHV	4.75 ± 0.086
VYCEDGY	0.641 ± 0.36
VYEGSLCLAYERLTGMGFIK	-0.382 ± 0.29
VYFAKRLFVLFIM	inactive
VYFELVPVGTYL	-0.214 ± 1
VYLCARKGM	-0.287 ± 0.79
VYLGSGFAARRSSGEQRRIS	0.536 ± 0.66
VYLYGPQLLSRWWIQLCCQM	2.96 ± 0.15
